Test results from patent US20220380763A1, “NUCLEIC ACID DELIVERY ENHANCER” (NATIONAL UNIVERSITY CORPORATION KOCHI UNIVERSITY, priority 2019, published 2022).
Read-outs that look alike come from different tables or passages of the source. Numbered stars: 1 amine (or outer) side, 2 acyl side, 3 side chain; on linkers, the order of the positions; unused ones are H or OH. Square brackets hold non-standard residues; d marks the D form. Peptide text beside a SMILES is read from it. * marks the point of attachment. Pteroyl = Nc1nc2ncc(CNc3ccc(C(=O)*)cc3)nc2c(=O)[nH]1; γGlu = O=C(O)[C@H](CCC(=O)[*:2])N[*:1]; Dab = NCC[C@H](N)C(=O)O

Tests used:
S2-013 cells = test: Matrigel invasion assay; format: cell-based, human; conditions: versus scrambled control siRNA and siRNA alone
Method: Each of the scrambled control siRNA, SNORA18 siRNA, NUP85 siRNA, WASF2 siRNA, and SNORA22 siRNA (all used in Example 5) with the folic acid-cationic oligopeptide complex added was added to the culture solution of S2-013 cells, and Matrigel invasion assay was performed after 48 hours.
4.0×10^4 cells were suspended in a serum-free medium and seeded in the upper chamber of a Matrigel Invasion Chamber (24-well plate, pore size: 8 μm, manufactured by Becton, Dickinson, and Company). A solvent containing 5% fetal bovine serum was added to the lower chamber. After the cells were incubated in the upper chamber for 20 hours, three independent areas were observed under a microscope, and the cells invading the lower chamber were counted. The same experiment was repeated three times, and the cell invasion ability of 52-013 cells into which each siRNA was taken up was compared.
The “*” denotes a significant difference at P<0.05 as compared to the control in the t-test.
Each of the scrambled control siRNA (SEQ ID NOs: 3 and 4), SNORA18 siRNA (SEQ ID NOs: 21 and 22), NUP85 siRNA (SEQ ID NOs: 23 and 24), WASF2 siRNA (SEQ ID NOs: 25 and 26), and SNORA22 siRNA (SEQ ID NOs: 27 and 28) was added with 2 equivalents of Dab8, Fol-Dab8A, or Fol-Dab8B to the culture solution of pancreatic cancer cell line S2-013 in culture. As a control, each of the control siRNA, SNORA18 siRNA, NUP85 siRNA, WASF2 siRNA, and SNORA22 siRNA was added alone to the culture solution of the S2-013 cells.
After 48 hours of culture, the Matrigel invasion assay was performed. In the Matrigel invasion assay, the number of cells that have migrated from the upper chamber to the lower chamber is shown. The “*” denotes a significant difference at P<0.05 as compared to the control in the t-test.

SNORA22 = SNORA22 siRNA (SEQ ID NOs: 11 and 12) in combination; Dab8 1 eq, Fol-Dab8A 3 eq, Fol-Dab8B 1 eq; S2-013 cells, 48 hours
Method: Scrambled control siRNA (SEQ ID NOs: 3 and 4), SNORA18 siRNA (SEQ ID NOs: 5 and 6), NUP85 siRNA (SEQ ID NOs: 7 and 8), WASF2 siRNA (SEQ ID NOs: 9 and 10), and SNORA22 siRNA (SEQ ID NOs: 11 and 12), to which a cationic oligopeptide or a folic acid-cationic peptide was added (a complex of Dab8 with siRNA in 1 equivalent, a complex of Fol-Dab8A with siRNA in 3 equivalents, and a complex of Fol-Dab8B with siRNA in 1 equivalent), were each added to the culture solution the S2-013 cells in a 6-well plate (Thermo Fisher Scientific Inc.) (1.0×10^5 cells/well), and the cells were recovered after 48 hours.
Semi-quantitative RT-PCR was performed using RNA from the recovered cells to confirm the knockdown effects of SNORA18, NUP85, WASF2, and SNORA22 in the cells.
Specifically, the total RNA obtained from the S2-013 cells was reverse-transcribed using StrataScript reverse transcriptase (Agilent) and random primers. Appropriate dilutions of each single-stranded cDNA were prepared for subsequent PCR amplification. GAPDH mRNA was used as an internal quantitative control.
PCR reactions were performed on a TaKaRa PCR Thermal Cycler Dice Gradient with initial denaturation at 94° C. for 2 minutes, followed by 94° C. for 30 seconds, 58° C. for 30 seconds, and 72° C. for 1 minute for 21 cycles (for GAPDH) or 25 cycles (for SNORA18, NUP85, WASF2, and SNORA22). Scanning and densitometric analysis for band intensity measurements were performed using the Quantity One analysis system (Bio-Rad).

[1] = system: bovine pancreas-derived RNase A; conditions: 1 or more equivalents; 10 nM siRNA, 37° C., 60 minutes
Method: RNA-degrading enzyme resistance of the nucleic acid duplex was tested in the presence of a cationic oligopeptide.
In this Example, peptides were added to the annealed RNA duplex to form a complex, and the rate of RNA degradation was measured.
Subsequently, the mixture was kept at 95° C. for 5 minutes and then slowly cooled to 4° C. at −0.5° C./min.
Thereafter, 15 μL of 100 μg/mL bovine pancreas-derived RNase A (manufactured by F. Hoffmann-La Roche, Ltd.) was added with stirring at 37° C., and fluorescence intensity measurement was started to track changes over time (excitation wavelength: 490 nm; measurement wavelength: 520 nm; and measurement time: 60 minutes).

[2] = system: RNA duplex (siRNA, SEQ ID NO: 1 and 2); conditions: for Tm: 4 μM nucleic acid duplex, 100 mM NaCl, pH 7.0; for ΔTm: versus no peptide (72.3)
Method: The melting temperature of the nucleic acid duplex was measured in the presence and absence of the cationic oligopeptide or folic acid-cationic oligopeptide complex synthesized in Example 1.
In this Example, the cationic oligopeptide (Dab8) or the folic acid-cationic oligopeptide (Fol-Dab8A or Fol-Dab8B) was added to an annealed RNA duplex, and the melting temperature (Tm value) was measured. As the RNA duplex, an oligonucleotide pair consisting of the following sequences was used as an siRNA.
After 144 μL of 50 μM nucleic acid solution was prepared and kept at 95° C. for 5 minutes, it was slowly cooled to 4° C. at −0.5° C./min. The solution was added to a mixed solution of pH 7.0 buffer containing 200 mM NaCl and 20 mM Na2HPO4—NaH2PO4 in OTSUKA DISTILLED WATER, and 0.1 mM peptide aqueous solution, and samples were adjusted to a final concentration of 10 mM Na2HPO4—NaH2PO4, 100 mM NaCl, 4 μM nucleic acid duplex, and 0, 4, 8, 12, 16, and 20 μM peptide (0, 1, 2, 3, 4, and 5 equivalents, respectively).
The temperature was increased from 20° C. to 95° C. at 0.5° C./min, and the absorbance at 260 nm was measured to determine a melting curve. The absorbance at 320 nm was measured to remove background noise, and a melting curve was created by subtracting the absorbance at 320 nm from the absorbance at 260 nm, and the Tm value was determined by a median method.

[3] = chemically-modified NUP85 siRNA (SEQ ID NOs: 23 and 24) with 2 equivalents of peptide
[4] = chemically-modified SNORA18 siRNA (SEQ ID NOs: 21 and 22) with 2 equivalents of peptide
[5] = chemically-modified SNORA22 siRNA (SEQ ID NOs: 27 and 28) with 2 equivalents of peptide
[6] = chemically-modified WASF2 siRNA (SEQ ID NOs: 25 and 26) with 2 equivalents of peptide

Row | Structure (SMILES) | invasion of S2-013 cells (S2-013 cells; [3]) | invasion of S2-013 cells (S2-013 cells; [4]) | invasion of S2-013 cells (S2-013 cells; [5]) | invasion of S2-013 cells (S2-013 cells; [6]) | knockdown effect on SNORA22 (SNORA22) | rate of increase in fluorescence intensity (degradation of RNA duplex by RNase A) [1] | Tm ([2]; 1 equivalent peptide) | ΔTm ([2]; 1 equivalent peptide) | Tm ([2]; 2 equivalents peptide) | ΔTm ([2]; 2 equivalents peptide) | Tm ([2]; 3 equivalents peptide) | ΔTm ([2]; 3 equivalents peptide) | Tm ([2]; 4 equivalents peptide) | ΔTm ([2]; 4 equivalents peptide) | Tm ([2]; 5 equivalents peptide) | ΔTm ([2]; 5 equivalents peptide)
1 | NCC[C@H](NC(=O)[C@H](CCN)NC(=O)[C@H](CCN)NC(=O)[C@H](CCN)NC(=O)[C@H](CCN)NC(=O)[C@H](CCN)NC(=O)[C@H](CCN)NC(=O)[C@H](CCN)NC(=O)CNC(=O)CNC(=O)CNC(=O)CC[C@H](NC(=O)c1ccc(NCc2cnc3nc(N)[nH]c(=O)c3n2)cc1)C(=O)O)C(N)=O [Fol-Dab8A] ({Pteroyl-γGlu}-GGG[Dab][Dab][Dab][Dab][Dab][Dab][Dab][Dab]-NH2) | significantly suppressed | significantly suppressed | significantly suppressed | significantly suppressed | remarkable knockdown effects | slower | 75.2 °C | 2.9 | 76.8 °C | 4.5 | 77.7 °C | 5.4 | 78.7 °C | 6.4 | 79.1 °C | 6.8
2 | NCC[C@H](NC(=O)[C@H](CCN)NC(=O)[C@H](CCN)NC(=O)[C@H](CCN)NC(=O)[C@H](CCN)NC(=O)[C@H](CCN)NC(=O)[C@H](CCN)NC(=O)[C@H](CCN)NC(=O)CNC(=O)CNC(=O)CNC(=O)[C@H](CCC(=O)O)NC(=O)c1ccc(NCc2cnc3nc(N)[nH]c(=O)c3n2)cc1)C(N)=O [Fol-Dab8B] (Pteroyl-EGGG[Dab][Dab][Dab][Dab][Dab][Dab][Dab][Dab]-NH2) | significantly suppressed | significantly suppressed | significantly suppressed | significantly suppressed | remarkable knockdown effects | slower | 74.5 °C | 2.2 | 76.4 °C | 4.1 | 77.7 °C | 5.4 | 78.5 °C | 6.2 | 79.8 °C | 7.5
